Measured values from patent US20180016327A1 (Chugai, published 2018).
Positions count from the first letter of the chain named.

B1: CFP0018 18L 96F (antibody, V domains shown)
VH: QVQLVQSGAEVKKPGSSVKVSCKASGGTFSSYAISWVRQAPGQGLEWMGGIIPIFGTANYAQKFQGRVTITADESTSTAYMELSSLRSEDTAVYYCARQLYGYYELDIWGQGTLVTVSS
VL: DIQMTQSPSSLSASVGDRVTITCRASQSISDDLAWYQQKPGKAPKLLIYEASSLQSGVPSRFSGSGSGTDFTLTISSLQPEDFATYYCQQYNSYPFTFGQGTKVEIK
B2: CFP0015 (antibody, V domains shown)
VH: QVQLLESGGGLVQPGGSLRLSCAASGFTFSSYAMSWVRQAPGKGLEWVSAISGSGGSTYYADSVKGRFTISRDNSKNTLYLQMNSLRAEDTAVYYCARGDQIWYDQWYYFDMWGQGTLVTVSS
VL: B1 VL with S30E, S53N, N92D, Y94S, F96L
notes: IgG format
B3: CFP0015 15L 32N (antibody, V domains shown)
VH: B2 VH
VL: B1 VL with S30E, D32N, S53N, N92D, Y94S, F96L
B4: CFP0015 15L 50H (antibody, V domains shown)
VH: B2 VH
VL: B1 VL with S30E, E50H, S53N, N92D, Y94S, F96L
B5: CFP0015 15L 50A (antibody, V domains shown)
VH: B2 VH
VL: B1 VL with S30E, E50A, S53N, N92D, Y94S, F96L
B6: CFP0015 15L 34N (antibody, V domains shown)
VH: B2 VH
VL: B1 VL with S30E, A34N, S53N, N92D, Y94S, F96L
B7: CFP0015 15L 50Y (antibody, V domains shown)
VH: B2 VH
VL: B1 VL with S30E, E50Y, S53N, N92D, Y94S, F96L
B8: CFP0015 15L 32Q (antibody, V domains shown)
VH: B2 VH
VL: B1 VL with S30E, D32Q, S53N, N92D, Y94S, F96L
B9: CFP0015 15L 31A (antibody, V domains shown)
VH: B2 VH
VL: B1 VL with S30E, D31A, S53N, N92D, Y94S, F96L
B10: CFP0015 15L 30F (antibody, V domains shown)
VH: B2 VH
VL: B1 VL with S30F, S53N, N92D, Y94S, F96L
B11: CFP0018 18L 96H (antibody, V domains shown)
VH: B1 VH
VL: B1 VL with F96H
B12: CFP0018 18L 96I (antibody, V domains shown)
VH: B1 VH
VL: B1 VL with F96I
B13: CFP0015 15L 30N (antibody, V domains shown)
VH: B2 VH
VL: B1 VL with S30N, S53N, N92D, Y94S, F96L
B14: CFP0015 15L 32S (antibody, V domains shown)
VH: B2 VH
VL: B1 VL with S30E, D32S, S53N, N92D, Y94S, F96L
B15: CFP0015 15L 31N (antibody, V domains shown)
VH: B2 VH
VL: B1 VL with S30E, D31N, S53N, N92D, Y94S, F96L
B16: CFP0015 15L 30S (antibody, V domains shown)
VH: B2 VH
VL: B1 VL with S53N, N92D, Y94S, F96L
B17: CFP0018 18L 96M (antibody, V domains shown)
VH: B1 VH
VL: B1 VL with F96M
B18: CFP0015 15L 32Y (antibody, V domains shown)
VH: B2 VH
VL: B1 VL with S30E, D32Y, S53N, N92D, Y94S, F96L
B19: CFP0015 15L 32E (antibody, V domains shown)
VH: B2 VH
VL: B1 VL with S30E, D32E, S53N, N92D, Y94S, F96L
B20: CFP0015 15L 31Y (antibody, V domains shown)
VH: B2 VH
VL: B1 VL with S30E, D31Y, S53N, N92D, Y94S, F96L
B21: CFP0015 15L 31T (antibody, V domains shown)
VH: B2 VH
VL: B1 VL with S30E, D31T, S53N, N92D, Y94S, F96L
B22: CFP0015 15L 30A (antibody, V domains shown)
VH: B2 VH
VL: B1 VL with S30A, S53N, N92D, Y94S, F96L
B23: CFP0015 15L 31S (antibody, V domains shown)
VH: B2 VH
VL: B1 VL with S30E, D31S, S53N, N92D, Y94S, F96L
B24: CFP0018 18L 96P (antibody, V domains shown)
VH: B1 VH
VL: B1 VL with F96P
B25: CFP0015 15L 32H (antibody, V domains shown)
VH: B2 VH
VL: B1 VL with S30E, D32H, S53N, N92D, Y94S, F96L
B26: CFP0015 15L 30Y (antibody, V domains shown)
VH: B2 VH
VL: B1 VL with S30Y, S53N, N92D, Y94S, F96L
B27: CFP0015 15L 53H (antibody, V domains shown)
VH: B2 VH
VL: B1 VL with S30E, S53H, N92D, Y94S, F96L
B28: CFP0015 15L 30Q (antibody, V domains shown)
VH: B2 VH
VL: B1 VL with S30Q, S53N, N92D, Y94S, F96L
B29: CFP0015 15L 50T (antibody, V domains shown)
VH: B2 VH
VL: B1 VL with S30E, E50T, S53N, N92D, Y94S, F96L
B30: CFP0018 18L 96V (antibody, V domains shown)
VH: B1 VH
VL: B1 VL with F96V
B31: CFP0015 15L 31Q (antibody, V domains shown)
VH: B2 VH
VL: B1 VL with S30E, D31Q, S53N, N92D, Y94S, F96L
B32: CFP0015 15L 30H (antibody, V domains shown)
VH: B2 VH
VL: B1 VL with S30H, S53N, N92D, Y94S, F96L
B33: CFP0018 18L 96Y (antibody, V domains shown)
VH: B1 VH
VL: B1 VL with F96Y
B34: CFP0015 15L 31E (antibody, V domains shown)
VH: B2 VH
VL: B1 VL with S30E, D31E, S53N, N92D, Y94S, F96L
B35: CFP0015 15L 31H (antibody, V domains shown)
VH: B2 VH
VL: B1 VL with S30E, D31H, S53N, N92D, Y94S, F96L
B36: CFP0018 18L 96W (antibody, V domains shown)
VH: B1 VH
VL: B1 VL with F96W
B37: CFP0015 15L 30D (antibody, V domains shown)
VH: B2 VH
VL: B1 VL with S30D, S53N, N92D, Y94S, F96L
B38: CFP0015 15L 30T (antibody, V domains shown)
VH: B2 VH
VL: B1 VL with S30T, S53N, N92D, Y94S, F96L
B39: CFP0015 15L 32T (antibody, V domains shown)
VH: B2 VH
VL: B1 VL with S30E, D32T, S53N, N92D, Y94S, F96L
B40: CFP0015 15L 50S (antibody, V domains shown)
VH: B2 VH
VL: B1 VL with S30E, E50S, S53N, N92D, Y94S, F96L
B41: CFP0015 15L 50D (antibody, V domains shown)
VH: B2 VH
VL: B1 VL with S30E, E50D, S53N, N92D, Y94S, F96L
B42: CFP0015 15L 50Q (antibody, V domains shown)
VH: B2 VH
VL: B1 VL with S30E, E50Q, S53N, N92D, Y94S, F96L
B43: CFP0015 15L 30P (antibody, V domains shown)
VH: B2 VH
VL: B1 VL with S30P, S53N, N92D, Y94S, F96L

target: T1, human C5 (human, UniProt P01031 19-673; P01031 678-1676, Beta and alpha chains are disulfide-linked and the protein is glycosylated.); test: Biacore, captured antibody, pH 7.4, 37 C;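 further: biacore binding response of anti-C5 antibody light chain variants captured on chip with human C5 injected, ACES running buffer containing 1.2 mM CaCl₂, parent light chain antibody set to 100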
T1 construct: Either in-house recombinant C5 or plasma derived C5 (CALBIOCHEM) was used; also called recombinant human C5; plasma derived human C5

| Binder | % binding (parent = 100) |
| --- | --- |
| B1 | 31.8% |
| B2 | 100% |
| B3 | 10.9% |
| B4 | 8.8% |
| B5 | 44.2% |
| B6 | 100% |
| B7 | 46.9% |
| B8 | 328% |
| B9 | 30% |
| B10 | 39.7% |
| B11 | 114% |
| B12 | 56% |
| B13 | 21.4% |
| B14 | 167% |
| B15 | 42.2% |
| B16 | 23.1% |
| B17 | 46.2% |
| B18 | 15.1% |
| B19 | 87.3% |
| B20 | 102% |
| B21 | 15.8% |
| B22 | 25.7% |

| Binder | % binding (parent = 100) |
| --- | --- |
| B23 | 36.5% |
| B24 | 18% |
| B25 | 0.8% |
| B26 | 51.3% |
| B27 | 80.8% |
| B28 | 42.6% |
| B29 | 26.9% |
| B30 | 70.3% |
| B31 | 25.8% |
| B32 | 18.4% |
| B33 | 23% |
| B34 | 22.4% |
| B35 | 59.4% |
| B36 | 16.9% |
| B37 | 59.9% |
| B38 | 25.1% |
| B39 | 78.1% |
| B40 | 44.2% |
| B41 | 131% |
| B42 | 51.8% |
| B43 | 60.9% |
